From IntAct's records for PubMed 10660620

Target: pilra_human PILRA (UniProt Q9UKJ1)
Sequence (Q9UKJ1 whole entry): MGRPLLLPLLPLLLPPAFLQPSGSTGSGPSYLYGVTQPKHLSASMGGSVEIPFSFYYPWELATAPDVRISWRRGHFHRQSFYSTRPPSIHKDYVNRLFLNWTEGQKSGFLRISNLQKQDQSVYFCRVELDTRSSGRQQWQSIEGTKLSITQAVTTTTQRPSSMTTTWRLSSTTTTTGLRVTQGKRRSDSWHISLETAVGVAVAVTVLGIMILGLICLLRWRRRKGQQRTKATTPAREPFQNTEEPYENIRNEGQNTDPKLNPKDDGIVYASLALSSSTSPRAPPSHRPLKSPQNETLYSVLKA

Tyrosine-protein phosphatase non-receptor type 6 (Homo sapiens), P29350 D419A, sequence (P29350 whole entry D419A): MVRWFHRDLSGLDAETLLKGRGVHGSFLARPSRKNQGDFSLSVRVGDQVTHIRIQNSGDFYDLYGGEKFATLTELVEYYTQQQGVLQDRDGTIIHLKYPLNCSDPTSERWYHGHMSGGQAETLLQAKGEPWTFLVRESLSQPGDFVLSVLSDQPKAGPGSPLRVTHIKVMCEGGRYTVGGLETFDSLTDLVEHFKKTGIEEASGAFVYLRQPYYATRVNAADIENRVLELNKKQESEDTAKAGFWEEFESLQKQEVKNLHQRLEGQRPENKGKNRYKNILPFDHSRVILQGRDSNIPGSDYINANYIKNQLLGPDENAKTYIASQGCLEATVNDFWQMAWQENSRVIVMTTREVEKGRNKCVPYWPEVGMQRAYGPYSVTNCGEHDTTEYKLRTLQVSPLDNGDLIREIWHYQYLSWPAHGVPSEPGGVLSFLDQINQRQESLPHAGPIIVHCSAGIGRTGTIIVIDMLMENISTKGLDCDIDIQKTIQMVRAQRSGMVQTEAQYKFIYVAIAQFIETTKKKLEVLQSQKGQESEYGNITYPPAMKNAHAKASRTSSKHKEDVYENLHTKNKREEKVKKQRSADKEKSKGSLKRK

Tyrosine-protein phosphatase non-receptor type 6 (Homo sapiens), P29350 D419A
effect of a mutation on the interaction: increasing interaction
